US20070014736A1, “Methods of delivering corticotroph-derived glycoprotein hormone” (priority 2005, published 2007)

What was measured:
thymus = test system: thymus; design: species or system mice; settings: mouse, in vivo
Excerpt: Since the receptor for CGH, TSH-R, is expressed by the adrenal glands, there was concern that the anti-inflammatory effects observed might be an indirect effect of increasing endogenous corticosteroid production in CGH-treated mice. One well-established side effect of increasing either exogenous or endogenous corticosteroid levels is substantial atrophy of the thymus, as the developing T cells are induced to undergo apoptosis. Therefore, the thymuses of the CGH and Dex-treated mice in the DTH experiments were analyzed. […] Thus, CGH seems to be mediating its anti-inflammatory effects in a manner distinct from that of exgenous glucocorticoids like Dex.

[1] = test system: undifferentiated 3T3 L1 fibroblasts; experiment: CRE-luciferase reporter assay in undifferentiated 3T3 L1 fibroblasts; format: cell-based, murine
Excerpt: (§1) Differentiated murine 3T3 L1 adipocytes and primary human adipocytes were used to study signal transduction of CGH. 3T3 L1 fibroblasts were differentiated into adipocytes and the cells were transduced with recombinant adenovirus containing a reporter construct, a firefly luciferase gene under the control of cAMP response element (CRE) enhancer sequences. This assay system detects cAMP-mediated gene induction downstream of activation of Gs-coupled G-protein coupled receptors (GPCR's). […] In a separate experiment, undifferentiated 3T3 L1 fibroblasts were transduced with the recombinant adenovirus. […] In another experiment, human primary adipocytes were also transduced with the recombinant adenovirus containing a reporter construct. Treatment of the human adipocytes with isoproterenol produced a 17-fold induction of luciferase expression.
(§2) Cells were cultured at 37° C. in an 8% CO2 humidified incubator. Cells were seeded to collagen-coated 96-well plates (Becton Dickinson, cat. #356407) at a density of 5,000 cells per well. […] Luciferase activity was measured on a microplate luminometer (PerkinElmer Life Sciences, Inc., model LB 96V2R) following automated injection of 40 μl of luciferase assay substrate into each well. […]

NCI-H295R = experiment: CRE-luciferase reporter assay in NCI-H295R adrenal cortex cells; format: cell-based, human
Excerpt: Summary: A human adrenal cortex cell line, NCI-H295R, was used to study signal transduction of CGH. NCI-H295R was transduced with recombinant adenovirus containing a reporter construct, a firefly luciferase gene under the control of cAMP response element (CRE) enhancer sequences. This assay system detects cAMP-mediated gene induction downstream of activation of Gs-coupled GPCR's (G-protein coupled receptors). […] Typically, CGH elicited a maximal response of 15-40-fold luciferase induction above control media.
NCI-H295R cells were obtained from the ATCC (CRL-2128, Manassas, Va.) and cultured in growth medium as follows: 1:1 mixture of Dulbecco's modified Eagle's medium and Ham's F12 medium with L-glutamine (D-MEM/F-12; GIBCO, cat.#11320-033) containing 25 mM HEPES buffer (GIBCO, Invitrogen, Carlsbad, Calif., cat.#15630-080), 1 mM sodium pyruvate (GIBCO, cat.#11360-070), 1% ITS+1 media supplement (Sigma St. Louis, Mo. cat#I2521) and 2.5% Nu-Se I (BD Biosciences, Lexington, Ky. cat.#355100). Cells were cultured at 37° C. in a 5% CO2 humidified incubator. […]
Promega's Luciferase Assay System (Promega, Madison, Wis., cat. #E1500) was used to process the treated cells. […] Luciferase activity was measured on a microplate luminometer (PerkinElmer Life Sciences, Inc., model LB 96V2R) following automated injection of luciferase assay substrate.

human primary adipocytes = experiment: CRE-luciferase reporter assay in human primary adipocytes; format: cell-based
Excerpt: as §1, §2

B1: CGH: heterodimeric protein hormone comprised of alpha subunit GPHA2 and beta subunit GPHB5, recombinantly produced in CHO cells (protein)
chain 1: QEAVIPGCHLHPFNVTVRSDRQGTCQGSHVAQACVGHCESSAFPSRYSVLVASGYRHNITSVSQCCTISGLKKVKVQLQCVGSRREELEIFTARACQCDMCRLSRY
chain 2: ASSGNLRTFVGCAVREFTFLAKKPGCRGLRITTDACWGRCETWEKPILEPPYIEAHHRVCTYNETKQVTVKLPNCAPGVDPFYTYPVAIRCDCGACSTATTECETI
- relative proportion of each thymocyte subset vs PBS-treated group (thymus): not significantly different
- reporter gene induction [1]: did not result in an increase in reporter gene induction
- maximal response, luciferase induction above control media (NCI-H295R; CRE-luciferase, 4 h): 15-40 fold
- induction of luciferase activity compared with 10 μM forskolin (NCI-H295R; dose-dependent): equal to or higher than that induced by 10 μM forskolin
- induction of luciferase expression / reporter gene (human primary adipocytes): 14 fold
